According to PMC5084080:

Target: LarB1-His (Rhodococcus jostii)
Test: BLI

“LarA-MBP (from UniProt H7C8I3 1-46) (natural protein)” was tested. Which Kd did it give?
The Kd was 440 nM.
